Reference: paper PMC10772716

Columns and labels:
Test in all cases: SEC-MALS
[1] = biological target: cMyBP-C C3C6 domains, E542Q variant (human) (UniProt Q14896)
[2] = biological target: cMyBP-C C3C6 domains, N755K variant (human) (UniProt Q14896)
[3] = biological target: cMyBP-C C3C6 domains, R820Q variant (human) (UniProt Q14896)

cMyBP-C C3C6 domains, E542Q variant (from UniProt Q14896 1-1274) (domain or fragment)
stoichiometry N [1]: 2

cMyBP-C C3C6 domains, N755K variant (from UniProt Q14896 1-1274) (domain or fragment)
stoichiometry N [2]: 2

cMyBP-C C3C6 domains, R820Q variant (from UniProt Q14896 1-1274) (domain or fragment)
stoichiometry N [3]: 2
